The values below are quoted from earlier work in paper PMC4132707.

Where only a bound is given, the exact number is not on record here.

Data set [1] has as its target H3K27me3 peptide (Homo sapiens) (UniProt P68431).
The target of data set [2] is H1K26me3 peptide (Homo sapiens) (UniProt P10412).
Sequence of H1K26me3 peptide (Homo sapiens) (P10412 2-219): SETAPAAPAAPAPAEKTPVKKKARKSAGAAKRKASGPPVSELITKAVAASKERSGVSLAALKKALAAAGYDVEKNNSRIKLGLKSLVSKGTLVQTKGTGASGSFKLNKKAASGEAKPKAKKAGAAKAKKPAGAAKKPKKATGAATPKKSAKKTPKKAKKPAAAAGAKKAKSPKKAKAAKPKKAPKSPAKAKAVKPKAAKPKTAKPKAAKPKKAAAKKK

Sequence of EED (O75530 2-441): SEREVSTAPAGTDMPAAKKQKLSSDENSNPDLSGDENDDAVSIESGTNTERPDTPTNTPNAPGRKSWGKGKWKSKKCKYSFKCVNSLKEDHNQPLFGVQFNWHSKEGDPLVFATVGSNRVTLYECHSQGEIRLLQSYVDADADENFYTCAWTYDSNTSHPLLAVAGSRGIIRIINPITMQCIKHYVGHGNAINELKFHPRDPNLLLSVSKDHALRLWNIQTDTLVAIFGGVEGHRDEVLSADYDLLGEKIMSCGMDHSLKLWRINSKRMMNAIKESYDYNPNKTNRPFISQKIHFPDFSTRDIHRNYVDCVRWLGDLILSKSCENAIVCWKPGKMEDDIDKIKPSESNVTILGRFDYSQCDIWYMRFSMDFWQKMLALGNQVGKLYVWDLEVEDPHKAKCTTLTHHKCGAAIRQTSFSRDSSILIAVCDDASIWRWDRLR

As to EED (from UniProt O75530), the Kd in data set [1] and in data set [2] was more than 20 µM in each case.

A word on the Kd: it is the equilibrium constant for the complex coming apart.
